In test [1] the target is T1, TNF-alpha (R&D Systems) (UniProt P01375 77-233).
T1 construct: also called tumor necrosis factor α; TNF-α
Nature of the test: Biacore T-100 SPR, response against TNF-alpha concentration. Symmetroadhesin thiol-coupled to a CM-5 chip.

The target of test [2] is T1, TNF-alpha (R&D Systems). Put plainly: Biacore T-100 SPR, response against TNF-alpha concentration. Symmetroadhesin amine-coupled to a CM-5 chip. On the technique in general: Surface plasmon resonance follows binding to a sensor surface in real time, without labels.

T1 sequence (P01375 77-233 limits assumed): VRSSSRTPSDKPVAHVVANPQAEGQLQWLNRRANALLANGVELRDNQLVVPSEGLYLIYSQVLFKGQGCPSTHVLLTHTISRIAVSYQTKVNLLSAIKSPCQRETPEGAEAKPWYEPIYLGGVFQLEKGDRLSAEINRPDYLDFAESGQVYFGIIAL

B1: TNR1B symmetroadhesin of FIG. 44A (iv) (human TNR1B extracellular domain with a C-terminal-X-terminus) (receptor)
chain: LPAQVAFTPYAPEPGSTCRLREYYDQTAQMCCSKCSPGQHAKVFCTKTSDTVCDSCEDSTYTQLWNWVPECLSCGSRCSSDQVETQACTREQNRICTCRPGWYCALSKQEGCRLCAPLRKCRPGFGVARPGTETSDVVCKPCAPGTFSNTTSSTDICRPHQICNVVAIPGNASMDAVCTSTSPTRSMAPGAVHLPQPVSTRSQHTQPTPEPSTAPSTSFLLPMGPSPPAEGSTGDGC
modifications: C-terminal X residue (residue 237) added by native chemical ligation; cysteine in the material made (cleavage/elution with cysteine)
notes: The same molecule was immobilised by amine chemistry and by thiol chemistry; also called TNR1B-X; TNR2-X
Broadly, the EC50 (read off the curve) is the midpoint of the concentration-response curve. Read a high EC50 (read off the curve) as a need for much substance. With B1, the “EC50 (read off the curve)” value was roughly 0.9 nM in test [1] and roughly 4 nM in test [2].
